Source: patent publication US20250242064A1, “CXCR4-TARGETING COMPOUNDS, AND METHODS OF MAKING AND USING THE SAME” (PROVINCIAL HEALTH SERVICES AUTHORITY, priority 2022, published 2025)
Where a SMILES comes first, the peptide text is derived from it. Bridges are numbered along the chain shown (N, C = ends). Side-chain parts run from the residue outwards. [ ]: non-standard residue; d: D form. The star is where a group is joined. X2 = O=C(O)CN1CCOCCN(CC(=O)O)CCN(CC(=O)*)CCOCCN(CC(=O)O)CC1; 2Nal = N[C@@H](Cc1ccc2ccccc2c1)C(=O)O; Lys(iPr) = CC(C)NCCCC[C@H](N)C(=O)O; Cya = N[C@@H](CS(=O)(=O)O)C(=O)O

Assay: in vivo
Design: species or system mice
Conditions: male, NOD.Cg-Rag1tm1Momll2rgtm1Wjl/SzJ (NRG), mouse, iv, total radioactivity, Mean; for tissue uptake at 1 h / tissue uptake at 3 h / tissue uptake at 24 h / tissue uptake at 72 h / tissue uptake at 120 h: Biodistribution
Experimental: The Z138 Mantle cell lymphoma cell line was purchased from the American Type Culture Collection (ATCC©CRL-3001). The cell line was cultured in a 5% CO2 atmosphere at 37° C. in a humidified incubator with IMDM medium supplemented with 10% fetal bovine serum, 100 I.U./mL penicillin, and 100 μg/mL streptomycin.
[^68Ga]GaCl3 was eluted from an iThemba Labs generator with a total of 4 mL of 0.1 M HCl. The eluted [^68Ga]GaCl3 solution was added to 2 mL of concentrated HCl. This radioactive mixture was then added to a DGA resin column and washed with 3 mL of 5 M HCl. The column was then dried with air and the [^68Ga]GaCl3 (0.10-0.50 GBq) was eluted with 0.5 mL of water into a vial containing a solution of the unlabeled precursor (25 μg) in 0.7 mL HEPES buffer (2 M, pH 5.3). The reaction mixture was heated in a microwave oven (Danby; DMW7700WDB) for 1 min at power setting 2. The mixture was purified by semi-prep HPLC and quality control was performed via analytical HPLC with the co-injection of the unlabeled standard with a one-twelfth of the radiotracer. Radiochemical yields (decay-corrected) were >50% and radiochemical purities were >95%.
Animal experiments were performed in accordance with guidelines established by the Canadian Council on Animal Care, under a research protocol approved by the Animal Ethics Committee of the University of British Columbia. For all studies, male NOD.Cg-Rag1tm1Momll2rgtm1Wjl/SzJ (NRG) mice were used and cells injected in a 100 μL solution of 1:1 ratio of PBS/Matrigel. For preclinical imaging and biodistribution studies, 5×10^6 cells of Z138, cells were subcutaneously inoculated on the left or right flank and tumors were grown to a size of 200-300 mm^3. […]
Under isoflurane anesthesia (2-2.5% isoflurane in 2 L/min 02), mice were injected intravenously with [^68Ga]Ga-BL34L6 or [^68Ga]Ga-BL34L7. Mice were euthanized by CO2 inhalation after anesthesia with isoflurane. Tissues were harvested, washed in PBS, patted dry, weighed, and then assayed radioactivity on a gamma counter. Counted radioactivities were converted to percentage injected dose per gram of tissue (% ID/g) using a calibration curve.

SMILES: CC(C)NCCCC[C@H](NC(=O)[C@H]1CCC(=O)N[C@@H](CCCCNC(=O)[C@H](CS(=O)(=O)O)NC(=O)CN2CCOCCN(CC(=O)O)CCN(CC(=O)O)CCOCCN(CC(=O)O)CC2)C(=O)N[C@@H](Cc2ccc(O)cc2)C(=O)N[C@@H](CCCCNC(C)C)C(=O)N[C@H](CCCNC(=N)N)C(=O)N[C@@H](Cc2ccc3ccccc3c2)C(=O)N[C@H](C)C(=O)N1)C(N)=O [[^177Lu]Lu-crown-BL34L20, metal not drawn] (K([Cya-X2])Y[Lys(iPr)][dR][2Nal][dA][dE][Lys(iPr)]-NH2; lactam N-7)
- tissue uptake at 1 h (Adrenals): 0.2 %ID/g
- tissue uptake at 3 h (Adrenals): 0.11 %ID/g
- tissue uptake at 24 h (Adrenals): 0.1 %ID/g
- tissue uptake at 72 h (Adrenals): 0.08 %ID/g
- tissue uptake at 120 h (Adrenals): 0.05 %ID/g
- tissue uptake at 1 h (Blood): 0.35 %ID/g
- tissue uptake at 3 h (Blood): 0.08 %ID/g
- tissue uptake at 24 h (Blood): 0.02 %ID/g
- tissue uptake at 72 h (Blood): 0.01 %ID/g
- tissue uptake at 1 h (Bone): 0.15 %ID/g
- tissue uptake at 3 h (Bone): 0.15 %ID/g
- tissue uptake at 24 h (Bone): 0.51 %ID/g
- tissue uptake at 72 h (Bone): 0.66 %ID/g
- tissue uptake at 120 h (Bone): 0.56 %ID/g
- tissue uptake at 1 h (Brain): 0.01 %ID/g
- tissue uptake at 3 h (Brain): 0.01 %ID/g
- tissue uptake at 24 h (Brain): 0.01 %ID/g
- tissue uptake at 72 h (Brain): 0.01 %ID/g
- tissue uptake at 1 h (Heart): 0.14 %ID/g
- tissue uptake at 3 h (Heart): 0.06 %ID/g
- tissue uptake at 24 h (Heart): 0.05 %ID/g
- tissue uptake at 72 h (Heart): 0.05 %ID/g
- tissue uptake at 120 h (Heart): 0.05 %ID/g
- tissue uptake at 1 h (Kidneys): 3.02 %ID/g
- tissue uptake at 3 h (Kidneys): 2.45 %ID/g
- tissue uptake at 24 h (Kidneys): 1.81 %ID/g
- tissue uptake at 72 h (Kidneys): 0.94 %ID/g
- tissue uptake at 120 h (Kidneys): 0.59 %ID/g
- tissue uptake at 1 h (Liver): 0.73 %ID/g
- tissue uptake at 3 h (Liver): 0.77 %ID/g
- tissue uptake at 24 h (Liver): 0.81 %ID/g
- tissue uptake at 72 h (Liver): 0.67 %ID/g
- tissue uptake at 120 h (Liver): 0.59 %ID/g
- tissue uptake at 1 h (Lungs): 0.53 %ID/g
- tissue uptake at 3 h (Lungs): 0.28 %ID/g
- tissue uptake at 24 h (Lungs): 0.2 %ID/g
- tissue uptake at 72 h (Lungs): 0.17 %ID/g
- tissue uptake at 120 h (Lungs): 0.15 %ID/g
- tissue uptake at 1 h (Muscle): 0.09 %ID/g
- tissue uptake at 3 h (Muscle): 0.03 %ID/g
- tissue uptake at 24 h (Muscle): 0.03 %ID/g
- tissue uptake at 72 h (Muscle): 0.02 %ID/g
- tissue uptake at 120 h (Muscle): 0.01 %ID/g
- tissue uptake at 1 h (Pancreas): 0.12 %ID/g
- tissue uptake at 3 h (Pancreas): 0.04 %ID/g
- tissue uptake at 24 h (Pancreas): 0.04 %ID/g
- tissue uptake at 72 h (Pancreas): 0.03 %ID/g
- tissue uptake at 120 h (Pancreas): 0.03 %ID/g
- tissue uptake at 1 h (Small Intestine): 0.23 %ID/g
- tissue uptake at 3 h (Small Intestine): 0.1 %ID/g
- tissue uptake at 24 h (Small Intestine): 0.17 %ID/g
- tissue uptake at 72 h (Small Intestine): 0.08 %ID/g
- tissue uptake at 120 h (Small Intestine): 0.06 %ID/g
- tissue uptake at 1 h (Spleen): 0.29 %ID/g
- tissue uptake at 3 h (Spleen): 0.23 %ID/g
- tissue uptake at 24 h (Spleen): 0.26 %ID/g
- tissue uptake at 72 h (Spleen): 0.24 %ID/g
- tissue uptake at 120 h (Spleen): 0.22 %ID/g
- tissue uptake at 1 h (Stomach): 0.08 %ID/g
- tissue uptake at 3 h (Stomach): 0.09 %ID/g
- tissue uptake at 24 h (Stomach): 0.52 %ID/g
- tissue uptake at 72 h (Stomach): 0.12 %ID/g
- tissue uptake at 120 h (Stomach): 0.14 %ID/g
- tissue uptake at 1 h (Testes): 0.11 %ID/g
- tissue uptake at 3 h (Testes): 0.04 %ID/g
- tissue uptake at 24 h (Testes): 0.04 %ID/g
- tissue uptake at 72 h (Testes): 0.03 %ID/g
- tissue uptake at 120 h (Testes): 0.03 %ID/g
- tissue uptake at 1 h (Z138 Tumor): 13.7 %ID/g
- tissue uptake at 3 h (Z138 Tumor): 11.7 %ID/g
- tissue uptake at 24 h (Z138 Tumor): 7.28 %ID/g
- tissue uptake at 72 h (Z138 Tumor): 3.47 %ID/g
- tissue uptake at 120 h (Z138 Tumor): 2.38 %ID/g
- tissue to tissue ratio at 1 h (Tumor-to-Blood ratio): 39.4
- tissue to tissue ratio at 3 h (Tumor-to-Blood ratio): 147
- tissue to tissue ratio at 24 h (Tumor-to-Blood ratio): 301
- tissue to tissue ratio at 72 h (Tumor-to-Blood ratio): 396
- tissue to tissue ratio at 120 h (Tumor-to-Blood ratio): 607
- tissue to tissue ratio at 1 h (Tumor-to-Bone ratio): 94
- tissue to tissue ratio at 3 h (Tumor-to-Bone ratio): 83.2
- tissue to tissue ratio at 24 h (Tumor-to-Bone ratio): 15.3
- tissue to tissue ratio at 72 h (Tumor-to-Bone ratio): 5.53
- tissue to tissue ratio at 120 h (Tumor-to-Bone ratio): 5.33
- tissue to tissue ratio at 1 h (Tumor-to-Kidney ratio): 4.54
- tissue to tissue ratio at 3 h (Tumor-to-Kidney ratio): 4.78
- tissue to tissue ratio at 24 h (Tumor-to-Kidney ratio): 4.01
- tissue to tissue ratio at 72 h (Tumor-to-Kidney ratio): 3.69
- tissue to tissue ratio at 120 h (Tumor-to-Kidney ratio): 4.1
- tissue to tissue ratio at 1 h (Tumor-to-Muscle ratio): 161
- tissue to tissue ratio at 3 h (Tumor-to-Muscle ratio): 430
- tissue to tissue ratio at 24 h (Tumor-to-Muscle ratio): 281
- tissue to tissue ratio at 72 h (Tumor-to-Muscle ratio): 175
- tissue to tissue ratio at 120 h (Tumor-to-Muscle ratio): 178
- tissue to tissue ratio at 1 h (Tumor-to-Pancreas ratio): 140
- tissue to tissue ratio at 3 h (Tumor-to-Pancreas ratio): 276
- tissue to tissue ratio at 24 h (Tumor-to-Pancreas ratio): 198
- tissue to tissue ratio at 72 h (Tumor-to-Pancreas ratio): 103
- tissue to tissue ratio at 120 h (Tumor-to-Pancreas ratio): 78
